Results reported in patent publication US20250277018A1 (published 2025).

Key:
[1] = molecular target: Human serum albumin; assay: ELISA; pH 7.4
[2] = molecular target: 4A01v4; assay: ELISA
[3] = molecular target: 4A01v3; assay: ELISA
[4] = molecular target: 4A01v5; assay: ELISA
[5] = molecular target: 4A01v6; assay: ELISA
[6] = molecular target: 4A01v3-8; assay: ELISA
[7] = molecular target: 4A01v3-1; assay: ELISA
[8] = molecular target: 4A01v9; assay: ELISA
[9] = molecular target: 4A01v3-5; assay: ELISA
[10] = molecular target: 4A01v3-4; assay: ELISA
[11] = molecular target: 4A01v1; assay: ELISA
[12] = molecular target: 4A01v3-7; assay: ELISA
[13] = molecular target: 4A01v3-3; assay: ELISA
[14] = molecular target: T1, Cynomolgus monkey serum albumin; assay: ELISA
T1 chain: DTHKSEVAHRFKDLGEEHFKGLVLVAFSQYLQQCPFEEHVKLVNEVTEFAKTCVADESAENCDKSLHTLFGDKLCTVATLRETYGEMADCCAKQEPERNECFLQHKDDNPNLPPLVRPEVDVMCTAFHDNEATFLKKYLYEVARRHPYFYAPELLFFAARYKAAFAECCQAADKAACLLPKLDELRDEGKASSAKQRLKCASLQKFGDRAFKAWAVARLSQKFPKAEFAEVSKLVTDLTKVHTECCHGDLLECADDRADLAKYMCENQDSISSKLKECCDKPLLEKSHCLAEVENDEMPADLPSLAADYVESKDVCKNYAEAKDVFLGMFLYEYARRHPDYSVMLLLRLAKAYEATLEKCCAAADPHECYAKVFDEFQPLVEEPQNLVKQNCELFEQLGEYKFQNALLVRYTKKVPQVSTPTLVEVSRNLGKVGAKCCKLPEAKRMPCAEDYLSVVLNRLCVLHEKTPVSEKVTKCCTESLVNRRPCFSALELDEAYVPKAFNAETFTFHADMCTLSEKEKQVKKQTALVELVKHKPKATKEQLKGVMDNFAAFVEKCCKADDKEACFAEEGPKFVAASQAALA

[15] = molecular target: Murine serum albumin; assay: ELISA
[16] = molecular target: T2, Rat serum albumin; assay: ELISA
T2 chain: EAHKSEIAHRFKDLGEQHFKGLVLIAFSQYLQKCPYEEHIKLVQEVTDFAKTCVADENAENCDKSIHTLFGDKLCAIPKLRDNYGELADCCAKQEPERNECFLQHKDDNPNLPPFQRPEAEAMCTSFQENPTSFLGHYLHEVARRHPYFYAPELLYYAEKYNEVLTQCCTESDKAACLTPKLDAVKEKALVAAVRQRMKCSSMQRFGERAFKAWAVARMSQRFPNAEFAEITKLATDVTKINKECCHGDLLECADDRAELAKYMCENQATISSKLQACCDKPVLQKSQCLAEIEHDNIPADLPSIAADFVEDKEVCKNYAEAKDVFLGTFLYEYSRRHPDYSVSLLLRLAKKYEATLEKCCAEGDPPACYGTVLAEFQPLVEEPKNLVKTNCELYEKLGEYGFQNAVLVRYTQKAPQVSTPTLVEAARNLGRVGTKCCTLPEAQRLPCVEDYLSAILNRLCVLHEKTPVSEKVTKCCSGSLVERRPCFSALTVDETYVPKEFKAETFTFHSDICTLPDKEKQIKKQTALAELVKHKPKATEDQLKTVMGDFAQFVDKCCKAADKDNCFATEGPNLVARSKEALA

Sequence of Murine serum albumin (chain, as listed by the source): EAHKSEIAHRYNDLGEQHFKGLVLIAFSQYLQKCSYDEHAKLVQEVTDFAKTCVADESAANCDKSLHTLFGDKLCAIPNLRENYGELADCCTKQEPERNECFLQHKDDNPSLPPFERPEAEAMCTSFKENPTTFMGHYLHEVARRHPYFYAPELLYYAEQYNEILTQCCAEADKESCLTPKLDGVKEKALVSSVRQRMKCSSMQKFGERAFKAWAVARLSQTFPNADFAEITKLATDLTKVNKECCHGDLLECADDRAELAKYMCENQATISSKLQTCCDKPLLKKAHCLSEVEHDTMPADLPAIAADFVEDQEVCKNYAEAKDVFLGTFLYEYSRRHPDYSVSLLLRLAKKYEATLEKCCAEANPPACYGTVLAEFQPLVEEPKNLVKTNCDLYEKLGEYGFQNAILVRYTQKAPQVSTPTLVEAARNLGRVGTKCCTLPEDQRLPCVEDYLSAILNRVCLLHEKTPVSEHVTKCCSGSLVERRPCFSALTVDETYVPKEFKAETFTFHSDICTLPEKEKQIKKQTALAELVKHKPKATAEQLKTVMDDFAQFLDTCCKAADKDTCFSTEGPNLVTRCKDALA

B1: cx12596 (bispecific antibody)
heavy: EVQLVESGGGLEQPGGSLRLSCAGSGFTFRDYAMTWVRQAPGKGLEWVSSISGSGGNTYYADSVKGRFTISRDNSKNTLYLQMNSLRAEDTAVYYCAKDRLSITIRPRYYGLDVWGQGTTVTVSSASTKGPSVFPLAPCSRSTSESTAALGCLVKDYFPEPVTVSWNSGALTSGVHTFPAVLQSSGLYSLSSVVTVPSSSLGTKTYTCNVDHKPSNTKVDKRVGGSGGSEVQLVESGGGEVQPGGSLRLSCAASGFTFSTSGMVWVRQAPGKGLEWVSTISDDARITVYAESVKGRFTISRDNAKNTVYLQMNSLRAEDTAVYYCATYRAGSRIGSYEDYYRGQGTLVTVKPGGGGDKTHTCPPCPAPGGPSVFLFPPKPKDTLMISRTPEVTCVVVDVSHEDPEVKFNWYVDGVEVHNAKTKPREEQYNSTYRVVSVLTVLHQDWLNGKEYKCKVSNKALPAPIEKTISKAKGQPREPQVYTLPPSRDELTKNQVSLTCLVKGFYPSDIAVEWESNGQPENNYKTTPPVLDSDGSFFLYSKLTVDKSRWQQGNVFSCSVMHEALHNHYTQKSLSLSP
light: DIVMTQSPLSLPVTPGEPASISCRSSQSLLYSIGYNYLDWYLQKSGQSPQLLIYLGSNRASGVPDRFSGSGSGTDFTLKISRVEAEDVGFYYCMQALQTPYTFGQGTKLEIKRTVAAPSVFIFPPSDEQLKSGTASVVCLLNNFYPREAKVQWKVDNALQSGNSQESVTEQDSKDSTYSLSSTLTLSKADYEKHKVYACEVTHQGLSSPVTKSENRGEC
Kd [1]: 12.2 pM

B2: cy (other)
chain: DTHKSEVAHRFKDLGEEHFKGLVLVAFSQYLQQCPFEEHVKLVNEVTEFAKTCVADESAENCDKSLHTLFGDKLCTVATLRETYGEMADCCAKQEPERNECFLQHKDDNPNLPPLVRPEVDVMCTAFHDNEATFLKKYLYEVARRHPYFYAPELLFFAARYKAAFAECCQAADKAACLLPKLDELRDEGKASSAKQRLKCASLQKFGDRAFKAWAVARLSQKFPKAEFAEVSKLVTDLTKVHTECCHGDLLECADDRADLAKYMCENQDSISSKLKECCDKPLLEKSHCLAEVENDEMPADLPSLAADYVESKDVCKNYAEAKDVFLGMFLYEYARRHPDYSVMLLLRLAKAYEATLEKCCAAADPHECYAKVFDEFQPLVEEPQNLVKQNCELFEQLGEYKFQNALLVRYTKKVPQVSTPTLVEVSRNLGKVGAKCCKLPEAKRMPCAEDYLSVVLNRLCVLHEKTPVSEKVTKCCTESLVNRRPCFSALELDEAYVPKAFNAETFTFHADMCTLSEKEKQVKKQTALVELVKHKPKATKEQLKGVMDNFAAFVEKCCKADDKEACFAEEGPKFVAASQAALA
Kd [2]: 247 pM
Kd [3]: 338 pM
Kd [4]: 203 pM
Kd [5]: 225 pM
Kd [6]: 147 pM
Kd [7]: 127 pM
Kd [8]: 117 pM
Kd [9]: 126 pM
Kd [10]: 181 pM
Kd [11]: 157 pM
Kd [12]: 118 pM
Kd [13]: 142 pM

B3: cx12594 (bispecific antibody)
heavy: EVQLVESGGGLEQPGGSLRLSCAGSGFTFRDYAMTWVRQAPGKGLEWVSSISGSGGNTYYADSVKGRFTISRDNSKNTLYLQMNSLRAEDTAVYYCAKDRLSITIRPRYYGLDVWGQGTTVTVSSASTKGPSVFPLAPCSRSTSESTAALGCLVKDYFPEPVTVSWNSGALTSGVHTFPAVLQSSGLYSLSSVVTVPSSSLGTKTYTCNVDHKPSNTKVDKRVESKYGPPCPPCPAPEFLGGPSVFLFPPKPKDTLYISRTPEVTCVVVDVSQEDPEVQFNWYVDGVEVHNAKTKPREEQFNSTYRVVSVLTVLHQDWLNGKEYKCKVSNKGLPSSIEKTISKAKGQPREPQVYTLPPSQEEMTKNQVSLTCLVKGFYPSDIAVEWESNGQPENNYKTTPPVLDSDGSFFLYSRLTVDKSRWQEGNVFSCSVVHEALHNHYTQKSLSLSLGGSGGSEVQLVESGGGEVQPGGSLRLSCAASGFTFSTSGMVWVRQAPGKGLEWVSTISDDARITVYAESVKGRFTISRDNAKNTVYLQMNSLRAEDTAVYYCATYRAGSRIGSYEDYYRGQGTLVTVKP
light: DIVMTQSPLSLPVTPGEPASISCRSSQSLLYSIGYNYLDWYLQKSGQSPQLLIYLGSNRASGVPDRFSGSGSGTDFTLKISRVEAEDVGFYYCMQALQTPYTFGQGTKLEIKRTVAAPSVFIFPPSDEQLKSGTASVVCLLNNFYPREAKVQWKVDNALQSGNSQESVTEQDSKDSTYSLSSTLTLSKADYEKHKVYACEVTHQGLSSPVTKSENRGEC
Kd [1]: 118 pM

B4: cx5009, hz4A01v51 VHH-hIgG1-xELL-NNT-Fc (VHH)
VHH: EVQLVESGGGEVQPGGSLRLSCAASGFTFSTSGMVWVRQAPGKGLEWVSTISDDARITVYAESVKGRFTISRDNAKNTVYLQMNSLRAEDTAVYYCATYRAGSRIGSYEDYYRGQGTLVTVKP
Kd [14]: 189 pM
Kd [15]: 207 pM
Kd [16]: 234 pM

B5: cx12583 (VHH)
chain: GGGGDKTHTCPPCPAPGGPSVFLFPPKPKDTLMISRTPEVTCVVVDVSHEDPEVKFNWYVDGVEVHNAKTKPREEQYNSTYRVVSVLTVLHQDWLNGKEYKCKVSNKALPAPIEKTISKAKGQPREPQVYTLPPSRDELTKNQVSLTCLVKGFYPSDIAVEWESNGQPENNYKTTPPVLDSDGSFFLYSKLTVDKSRWQQGNVFSCSVMHEALHNHYTQKSLSLSPGSGGGSEVQLVESGGGEVQPGGSLRLSCAASGFTFSTSGMVWVRQAPGKGLEWVSTISDDARITVYAESVKGRFTISRDNAKNTVYLQMNSLRAEDTAVYYCATYRAGSRIGSYEDYYRGQGTLVTVKP
Kd [1]: 126 pM

B6: cx12595 (bispecific antibody)
heavy: EVQLVESGGGLEQPGGSLRLSCAGSGFTFRDYAMTWVRQAPGKGLEWVSSISGSGGNTYYADSVKGRFTISRDNSKNTLYLQMNSLRAEDTAVYYCAKDRLSITIRPRYYGLDVWGQGTTVTVSSASTKGPSVFPLAPCSRSTSESTAALGCLVKDYFPEPVTVSWNSGALTSGVHTFPAVLQSSGLYSLSSVVTVPSSSLGTKTYTCNVDHKPSNTKVDKRVGGSGGSEVQLVESGGGEVQPGGSLRLSCAASGFTFSTSGMVWVRQAPGKGLEWVSTISDDARITVYAESVKGRFTISRDNAKNTVYLQMNSLRAEDTAVYYCATYRAGSRIGSYEDYYRGQGTLVTVKPGGGGESKYGPPCPPCPAPEFLGGPSVFLFPPKPKDTLYISRTPEVTCVVVDVSQEDPEVQFNWYVDGVEVHNAKTKPREEQFNSTYRVVSVLTVLHQDWLNGKEYKCKVSNKGLPSSIEKTISKAKGQPREPQVYTLPPSQEEMTKNQVSLTCLVKGFYPSDIAVEWESNGQPENNYKTTPPVLDSDGSFFLYSRLTVDKSRWQEGNVFSCSVVHEALHNHYTQKSLSLSLG
light: DIVMTQSPLSLPVTPGEPASISCRSSQSLLYSIGYNYLDWYLQKSGQSPQLLIYLGSNRASGVPDRFSGSGSGTDFTLKISRVEAEDVGFYYCMQALQTPYTFGQGTKLEIKRTVAAPSVFIFPPSDEQLKSGTASVVCLLNNFYPREAKVQWKVDNALQSGNSQESVTEQDSKDSTYSLSSTLTLSKADYEKHKVYACEVTHQGLSSPVTKSENRGEC
Kd [1]: 32.6 pM

B7: cx12584 (VHH)
chain: GGGGDKTHTCPPCPAPGGPSVFLFPPKPKDTLMISRTPEVTCVVVDVSHEDPEVKFNWYVDGVEVHNAKTKPREEQYNSTYRVVSVLTVLHQDWLNGKEYKCKVSNKALPAPIEKTISKAKGQPREPQVYTLPPSRDELTKNQVSLTCLVKGFYPSDIAVEWESNGQPENNYKTTPPVLDSDGSFFLYSKLTVDKSRWQQGNVFSCSVMHEALHNHYTQKSLSLSPGGGSGGGSGGGSEVQLVESGGGEVQPGGSLRLSCAASGFTFSTSGMVWVRQAPGKGLEWVSTISDDARITVYAESVKGRFTISRDNAKNTVYLQMNSLRAEDTAVYYCATYRAGSRIGSYEDYYRGQGTLVTVKP
Kd [1]: 81.3 pM
